Results from the RNAGym collection of RNA variant scans (doi:10.1073/pnas.2313332121).
This sample holds only a part of the variants without activity.

B1: TPR 5TU (parent)
chain: GGAUCUUCUCGAUCUAACAAAAAAGACAAAUCUGCCACAAAGCUUGAGAGCAUCUUCGGAUGCAGAGGCGGCAGCCUUCGGUGGCGCGAUAGCGCCAACGUUCUCAACUAUGACACGCAAAACGCGUGCUCCGUUGAAUGGAGUUUAUCAUG

Variants of: B1
Assay: polymerase ribozyme fitness, log enrichment relative to wild type (log ratio); higher = more active; in vitro selection for triplet polymerase activity
Procedure, shortened: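 PCR was used to build mutant libraries for each subunit of a heterodimeric triplet polymerase ribozyme, which were then transcribed. A single in vitro selection round, in triplicate, used a frozen incubation at −7 °C and recovered extended constructs by gel excision, streptavidin beads and RT-PCR. Fitness is the logarithm of genotype enrichment relative to wild-type enrichment, averaged over replicates with inverse-variance weights. The logarithm is base 2, and after Illumina sequencing only genotypes with ≥10 input reads and ≥1 read per output were kept.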

Variant	polymerase ribozyme fitness (log ratio)
GGAUCUUCUCGAUCUAACAAAAAAGACAAAUCUGCCACAAAGCUUGAGAGCAUCUUCGGAUGCAGAGGCGGCAGCCUUCGGUGGCUCGAUAGCGCCAAUGUUGUCAACUAUGACACGCAAAACGCGUGCUGCGUUGAAUGGAGUUUAUCAUG [G86U C99U C103G C131G]	≤ -4.2
GGAUCUUCUCGAUCUAACAAAAAAGACAAAUCUGCCACAAAGCUUGAGAGCAUCUUCGGAUGCAGAGGCGGCAGCCUUCGGUGGCUCGAUAGCGCCUACGUUCUCAACUAUGACACGCAAAACGCGUGCUCCGUUGAAUGGAGUUUAUCAUG [G86U A97U]	-1.74
GGAUCUUCUCGAUCUAACAAAAAAGACAAAUCUGCCACAAAGCUUGAGAGCAUCUUCGGAUGCAGAGGCGGCAGCCUUCGGUGGCGAGAUAGCGCCAACGUUCUCAACUAUGACACGCGAAACGCGUGCUCCGUUGGAUGGAGUUUAUCAUG [C87A A119G A137G]	≤ -4.2
GGAUCUUCUCGAUCUAACAAAAAAGACAAAUCUGCCACAAAGCUUGAGAGCAUCUUCGGAUGCAGAGGCGGCAGCCUUCGGUGGCCCGAUAGCGCCAACGUUCUGAACUAUGACACGCAAAACGCGUGCUCCGUUGAAUGGAGUUUAUCAUG [G86C C105G]	-3.67
GGAUCUUCUCGAUCUAACAAAAAAGACAAAUCUGCCACAAAGCUUGAGAGCAUCUUCGGAUGCAGAGGCGGCAGCCUUCGGUGGCGAGAUAGCGACAACGUUCUCAACUAUGACACGCAAAACGCGUGCUCCGUUGAAUGGAGUUUAUCAUG [C87A C95A]	≤ -4.2
GGAUCUUCUCGAUCUAACAAAAAAGACAAAUCUGCCACAAAGCUUGAGAGCAUCUUCGGAUGCAGAGGCGGCAGCCUUCGGUGGCUCGAUAGCGCCAACGUUCUCAACUAUGACAUGCAAAACGCGUGCUCCGUUGAAUGGAGUUUAUCAUG [G86U C116U]	-1.03
GGAUCUUCUCGAUCUAACAAAAAAGACAAAUCUGCCACAAAGCUUGAGAGCAUCUUCGGAUGCAGAGGCGGCAGCCUUCGGUGGCUCGAUAGCGCCAACGUUCUCAACUAUGACAGGCAAAACGCGUGCUCCGUUGAAUGGAGUUUAUCAUG [G86U C116G]	-1.04
GGAUCUUCUCGAUCUAACAAAAAAGACAAAUCUGCCACAAAGCUUGAGAGCAUCUUCGGAUGCAGAGGCGGCAGCCUUCGGUGGCGACAUAGCGCUAACGUUCUCAACUAUGACACGUAAAACGCGUGCUCCGUUGAAUGGAGUUCAUCAUG [C87A G88C C96U C118U U146C]	≤ -4.2
GGAUCUUCUCGAUCUAACAAAAAAGACAAAUCUGCCACAAAGCUUGAGAGCAUCUUCGGAUGCAGAGGCGGCAGCCUUCGGUGGCGAGAUAGCGCCAACGUUCUCAACUAUGACACGCAAAACGCGUGCUCCGUUGAAUGGAGUUUAUCAUG [C87A]	≤ -4.2
GGAUCUUCUCGAUCUAACAAAAAAGACAAAUCUGCCACAAAGCUUGAGAGCAUCUUCGGAUGCAGAGGCGGCAGCCUUCGGUGGCGAGAUAGCGCCAUCGUUCUCAACUAUGACACGCAAAACGCGUGCUCCGUUGAAUGGAGUUUAUCAUG [C87A A98U]	-4.12
GGAUCUUCUCGAUCUAACAAAAAAGACAAAUCUGCCACAAAGCUUGAGAGCAUCUUCGGAUGCAGAGGCGGCAGCCUUCGGUGGCUCGGUAACGCCAACGUUCUCAACUAUGACACGCAAAACGCGUGCUCCGUUGAAUGGAGUUUAUCAUG [G86U A89G G92A]	≤ -4.2
GGAUCUUCUCGAUCUAACAAAAAAGACAAAUCUGCCACAAAGCUUGAGAGCAUCUUCGGAUGCAGAGGCGGCAGCCUUCGGUGGCUCGAUAGCGCCAACGUUCUCAACUAUGACACGCAAAACGCGUGCUCCGUUGAAUGGAGUUUAUCAUU [G86U G152U]	≤ -4.2
GGAUCUUCUCGAUCUAACAAAAAAGACAAAUCUGCCACAAAGCUUGAGAGCAUCUUCGGAUGCAGAGGCGGCAGCCUUCGGUGGCUCGAUAGCGCCAACGGUCUCAACUAUGACACGCAAAACGCGUGCUCCGUUGAAUGGAGUUUAUCAUG [G86U U101G]	-2.21
GGAUCUUCUCGAUCUAACAAAAAAGACAAAUCUGCCACAAAGCUUGAGAGCAUCUUCGGAUGCAGAGGCGGCAGCCUUCGGUGGCUCGAUAGCGCCAACGUUCUCAGCUAUGACAAGCAAAACGCGUGCUCCGUUUACUGGAGUUUAUCAUG [G86U A107G C116A G136U A138C]	≤ -4.2
GGAUCUUCUCGAUCUAACAAAAAAGACAAAUCUGCCACAAAGCUUGAGAGCAUCUUCGGAUGCAGAGGCGGCAGCCUUCGGUGGCGAGAUAGCGCCGACGUUCUCAACUAUGACACGCAAAACGCGUGCUCCGUUGAAUGGAGUUUAUCAUG [C87A A97G]	≤ -4.2
GGAUCUUCUCGAUCUAACAAAAAAGACAAAUCUGCCACAAAGCUUGAGAGCAUCUUCGGAUGCAGAGGCGGCAGCCUUCGGUGGCGAGCUAGCGCCAACGUUCUCAACUAUGACACGCAAAACCCGUGCUCCGUUGAAUGGAGUUUAACAUG [C87A A89C G124C U148A]	≤ -4.2
GGAUCUUCUCGAUCUAACAAAAAAGACAAAUCUGCCACAAAGCUUGAGAGCAUCUUCGGAUGCAGAGGCGGCAGCCUUCGGUGGCGAGAUAGCGCCAACGUUCUCAACUAUGACACGCAAAACGCCUGCUCCGUUGAAUGGAGUUUAUCAUG [C87A G126C]	-4.16
GGAUCUUCUCGAUCUAACAAAAAAGACAAAUCUGCCACAAAGCUUGAGAGCAUCUUCGGAUGCAGAGGCGGCAGCCUUCGGUGGCGAGAUAGCGCCAACGUUCUCAACUAUGACACGCAAAACGCUUGCUCCGUUGAAUGGAGUUUAUCAUG [C87A G126U]	≤ -4.2
GGAUCUUCUCGAUCUAACAAAAAAGACAAAUCUGCCACAAAGCUUGAGAGCAUCUUCGGAUGCAGAGGCGGCAGCCUUCGGUGGCUCGAUAGCGCUAACGUUCUCAACUAUGACACGCAAAACGCGUGCUCCGUUGAAUGGAGUUUAUCAUG [G86U C96U]	-2.68

Variant	polymerase ribozyme fitness (log ratio)
GGAUCUUCUCGAUCUAACAAAAAAGACAAAUCUGCCACAAAGCUUGAGAGCAUCUUCGGAUGCAGAGGCGGCAGCCUUCGGUGGCUCGAUAGCGCCAACGUUCUCAACUAUGACACGCAAAACGCGUGCUCCGUUGAAUGGAGAUUAUCAUG [G86U U144A]	-3.12
GGAUCUUCUCGAUCUAACAAAAAAGACAAAUCUGCCACAAAGCUUGAGAGCAUCUUCGGAUGCAGAGGCGGCAGCCUUCGGUGGCGAGAUAGCGCCAACGUUCUCAGCUGUGACACGCAGAACGCGUGCUCCGUUGAACAGAGUUUGUCAUG [C87A A107G A110G A120G U139C G140A A147G]	≤ -4.2
GGAUCUUCUCGAUCUAACAAAAAAGACAAAUCUGCCACAAAGCUUGAGAGCAUCUUCGGAUGCAGAGGCGGCAGCCUUCGGUGGCGAGAUAGCGUCAACGUUCUCAUCUAUGACACGCAAAACGCGUGCUCCGUUGAAUGGAGUUUAUCAUG [C87A C95U A107U]	≤ -4.2
GGAUCUUCUCGAUCUAACAAAAAAGACAAAUCUGCCACAAAGCUUGAGAGCAUCUUCGGAUGCAGAGGCGGCAGCCUUCGGUGGCUCGAUAGCGCCAACGUUCUCAACUAUGACACGCAAAACGCGUGCUCCGUUGAAUGGAGUUUAUUAUG [G86U C149U]	-2.48
GGAUCUUCUCGAUCUAACAAAAAAGACAAAUCUGCCACAAAGCUUGAGAGCAUCUUCGGAUGCAGAGGCGGCAGCCUUCGGUGGCGAGAUAGCGCCAAUGUUCUCAACUAUGACACGCAAAACGCGUGCUCCGUUGAAUGGAGUUUAUCAUG [C87A C99U]	≤ -4.2
GGAUCUUCUCGAUCUAACAAAAAAGACAAAUCUGCCACAAAGCUUGAGAGCAUCUUCGGAUGCAGAGGCGGCAGCCUUCGGUGGCCCGAUAGCGCCAACGUUCUCAACUAUGACACGCAAAACGCGUGCUCCGUAGAAUGGAGUUUAUCAUG [G86C U135A]	-3.03
GGAUCUUCUCGAUCUAACAAAAAAGACAAAUCUGCCACAAAGCUUGAGAGCAUCUUCGGAUGCAGAGGCGGCAGCCUUCGGUGGCUCGUUAGCGCCAACGUUCUCAACUAUGACACGCAAAACGCGUGCUCCGUUGAAUGGAGUUUAUCAUG [G86U A89U]	-2.62
GGAUCUUCUCGAUCUAACAAAAAAGACAAAUCUGCCACAAAGCUUGAGAGCAUCUUCGGAUGCAGAGGCGGCAGCCUUCGGUGGCGAGAUAGGGCCAACGUUCUCAACUAUGACACGCAAAACGCGUGCUCCGUUGAAUGGAGUUUAUCAUG [C87A C93G]	≤ -4.2
GGAUCUUCUCGAUCUAACAAAAAAGACAAAUCUGCCACAAAGCUUGAGAGCAUCUUCGGAUGCAGAGGCGGCAGCCUUCGGUGGCUCGAUAGCGCCUACGUUCUCAACUAUGACACGCAAAACGCGUGCUCAGUUGAAUGGAGUUUAUCAUG [G86U A97U C132A]	≤ -4.2
GGAUCUUCUCGAUCUAACAAAAAAGACAAAUCUGCCACAAAGCUUGAGAGCAUCUUCGGAUGCAGAGGCGGCAGCCUUCGGUGGCGAGAUAGCGCCAACGUUCUCAACUAUGACACGCAAAACGCGUACUCCGUUGAAUGGAGUUCAACAUG [C87A G128A U146C U148A]	≤ -4.2
GGAUCUUCUCGAUCUAACAAAAAAGACAAAUCUGCCACAAAGCUUGAGAGCAUCUUCGGAUGCAGAGGCGGCAGCCUUCGGUGGCUCGAUAGCGCCAACGUUCUCAACUAUGACACGCAAAUCGCGUGCUCCGUUGAAUGGAGUUUAUCAUG [G86U A122U]	-1.8
GGAUCUUCUCGAUCUAACAAAAAAGACAAAUCUGCCACAAAGCUUGAGAGCAUCUUCGGAUGCAGAGGCGGCAGCCUUCGGUGGCUCGAUAGCGCCAACGUUCUCAACUAUGACACGCAAAGCGCGUGCUCCGUUGAAUGGAGUUUAUCAUG [G86U A122G]	-2.43
GGAUCUUCUCGAUCUAACAAAAAAGACAAAUCUGCCACAAAGCUUGAGAGCAUCUUCGGAUGCAGAGGCGGCAGCCUUCGGUGGCUCGAUAGCGCCACCGCUCUCAACUAUGACACGCAAAACGCGUGCUCCGUUGAAUGGAGUUUAUCAUG [G86U A98C U101C]	-0.908
GGAUCUUCUCGAUCUAACAAAAAAGACAAAUCUGCCACAAAGCUUGAGAGCAUCUUCGGAUGCAGAGGCGGCAGCCUUCGGUGGCGAGAUCGCGCCAACGUUCUCAACUAUGACACGCAAAACGCGUGCUCCGUUGAAUGGAGUUUAUCAUG [C87A A91C]	≤ -4.2
GGAUCUUCUCGAUCUAACAAAAAAGACAAAUCUGCCACAAAGCUUGAGAGCAUCUUCGGAUGCAGAGGCGGCAGCCUUCGGUGGCUCGAUAGAGCCAACGUUCUCAACUAUGACACGCAAAACGCGUGCUCCGUUGAAUGGAGUUUAUCAUG [G86U C93A]	-0.194
GGAUCUUCUCGAUCUAACAAAAAAGACAAAUCUGCCACAAAGCUUGAGAGCAUCUUCGGAUGCAGAGGCGGCAGCCUUCGGUGGCUCGAUAGCGCCAACGUUCUCAACUAUGACACGCAAUACGCGUGCUCCGUUGAAUGGAGUUUAUCAUG [G86U A121U]	-0.702
GGAUCUUCUCGAUCUAACAAAAAAGACAAAUCUGCCACAAAGCUUGAGAGCAUCUUCGGAUGCAGAGGCGGCAGCCUUCGGUGGCGAUAUAGCGCCAACGUUCUCAACUAUGACACGCAAAACGCGUGCUCCGUUGAAUGGAGUUUAUCAUG [C87A G88U]	≤ -4.2
GGAUCUUCUCGAUCUAACAAAAAAGACAAAUCUGCCACAAAGCUUGAGAGCAUCUUCGGAUGCAGAGGCGGCAGCCUUCGGUGGCGAGAUAGCGUCAACGUUCUCAACUAUGACACGCAAAACGCGUGCUCCGUUGAAUGCAGUUUAUCAUG [C87A C95U G141C]	-4.16
GGAUCUUCUCGAUCUAACAAAAAAGACAAAUCUGCCACAAAGCUUGAGAGCAUCUUCGGAUGCAGAGGCGGCAGCCUUCGGUGGCGAGAUAGCGCCAACGUUCUCAACUAUGACACGCAAAACGCGUGCUCCGUUGAAUGCAGUUUAUCAUG [C87A G141C]	≤ -4.2
